Experimental data reported in the DeepSol protein solubility set.

test: soluble on expression in E. coli; label from the status in PepcDB or PDB records

Sequence	soluble on expression in E. coli
MTVVIGLTGGIASGKSTVSQMFRELSIPVIDADIIAREVVEKGKPAYNKIVEVFGTEVLQEDGELDRPKLGSVVFYNEEKRLQLNKIVHPAVREEMNRQKEMYIKEGMQAVVLDIPLLFESKLTSLVDRVLVVAVKPHTQLERLMKRNNFSEEEATARIQSQMPLEEKVKNADEVINNDGTIMGTKTQLQAILKKWNIID	not soluble
MGSDKIHHHHHHMAAELKTITVLGAGGKMGMRISANFQKSDYQVFYCENSPRAQEQVVAAGRELSIAEQVIPESDVVILAVPDIALKAVSGIVVPQMKSNAVLLTLDPAAAYANLIAKRDDIDYAVAHPCHPSVFLDRFTPEEHADAFGGVAAPQHVAASYETGSDEQKATLARVVKVMYGPVIDVHWVTVKQLAYLEPTLVETVACMVGTLMKEALDETINTIGVPEAAAKAMLYGHIQIALAVAFRSTNPFSDACMIAIEYGKENIIKPDWKKIFDEKELDLVIAKMLKIDAIER	not soluble
GGRALRVLVDMDGVLADFEGGFLRKFRARFPDQPFIALEDRRGFWVSEQYGRLRPGLSEKAISIWESKNFFFELEPLPGAVEAVKEMASLQNTDVFICTSPIKMFKYCPYEKYAWVEKYFGPDFLEQIVLTRDKTVVSADLLIDDRPDITGAEPTPSWEHVLFTACHNQHLQLQPPRRRLHSWADDWKAILDSKRPC	soluble
MGSDKIHHHHHHSDLTSAQVAERLLVSQPKISLLENGHRAISPRDVRDLCELYGVTDRQVIDSLMRMARESGQQGWWNTYGNIPNSVYIGLETDASSIHTYEPMVIPDLLQTPAYAHAVIETTVPPIPAQQADARLKVRLRRQHRIYDPARPLRLWVVLDEPALHRVVGRPDIMREQLEHLNALSAEPHITVQVLPYTAGAHPGRQGQFSVLRFADSPEAGMVYLERFTSDLYLKKPSEVQQYSMMYDHLQARALSPEGTRDFVTDVTKSHIDVASRP	not soluble
MATPDLTIRGGGIFGLAVAWAAVRRGAKVRLIESARIGAGSSGGVVGALSPHVPEQWNEKKAFQFESLAMGEAWWAAVADASGLPTGYDRLGRFQPLADARAVDHARARAEEARTLWQGRFSWEVVPAGGDFMPESPTGLVIHDTLTARLNPRLAVPALVQAIRAQGGEILIGEGEEAGPVVWATGVAGLEALSQDLGKPVGNGVKGQAMVVALDARDRPQVFGPGLLIVPHADGTTAVGSTAEKDWTAPDTTDAQLDEVHARAVALCPWLEGAPVLTRWAGLRPRARSLAPMLGEWPGRPGQYVANGGFKIGFGMAPKVGEVMAALVLEGRDEIPESFRVEASLKKKGKAEELEHHHHHH	not soluble
MRIGELSKETGVSERSLRHYEEKGLLPSKRLANGYRDFDESAIEKVELIQMYLQIGLNLEETARMLRCLEIEPHLYDNPCSSILTLYEDKLNEVTKQITLLSNIQANLQKHVSLLKQAKEKE	not soluble
MSSVMSHTGGKEGTYPGTRASATMIGDDETNWGTKSLAILDMPFTAVMDTLLLPWDVFRKDSSVRSRVEKSEANAQATNAVIPPARMPDNLEHHHHHH	not soluble
MNSYPLISVIMSVYKEEREWLVSSIQSILDQTVSDFEFIIILDFPNSELLKTLKDFEKKDSRIIIYQNEKNVGLVESLNTALSFSRGKYIARMDADDISHKNRFEKQLKYITLNNLDLVGGNVNIFHSNKGIYNTTDKVQSDYFLCKLLKIGTIGIVHPTFFSKRNVYDTIGGYYHAECAEDLELLMRANLNGFKIGNIPDVILDCRYSEKSITKENAYFMFCTVKYLKSLYRSSLKSGDYKFNSNYIELYLYDENNKLAFSEKQNLMSEARHSFNEKKYISFLINLIKSILISRTVFFSIKVNVMSFLFRKVEVKIPKVLLACIKIKLQLEHHHHHH	soluble
MNPESRVIRKVLALQNDEKIFSGERRVLIAFSGGVDSVVLTDVLLKLKNYFSLKEVALAHFNHMLRESAERDEEFCKEFAKERNMKIFVGKEDVRAFAKENRMSLEEAGRFLRYKFLKEILESEGFDCIATAHHLNDLLETSLLFFTRGTGLDGLIGFLPKEEVIRRPLYYVKRSEIEEYAKFKGLRWVEDETNYEVSIPRNRIRHRVIPELKRINENLEDTFLKMVKVLRAEREFLEEEAQKLYKEVKKGNCLDVKKLKEKPLALQRRVIRKFIGEKDYEKVELVRSLLEKGGEVNLGKGKVLKRKERWLCFSPEV	soluble
MEPLLSLKSVSKSYDDLNILDDIDIDIESGYFYTLLGPSGCGKTTILKLIAGFEYPDSGEVIYQNKPIGNLPPNKRKVNTVFQDYALFPHLNVYDNIAFGLKLKKLSKTEIDQKVTEALKLVKLSGYEKRNINEMSGGQKQRVAIARAIVNEPEILLLDESLSALDLKLRTEMQYELRELQSRLGITFIFVTHDQEEALALSDFLFVLKDGKIQQFGTPTDIYDEPVNRFVADFIGESNIVEGRMVRDYVVNIYGQDFECVDMGIPENKKVEVVIRPEDISLIKAEEGLFKATVDSMLFRGVHYEICCIDNKGYEWVIQTTKKAEVGSEVGLYFDPEAIHIMVPGETEEEFDKRIESYEEVDNA	not soluble
MILLLAGTSDARELAVMIQQAGYNVTATVVTDHAAEQLRSAGIRAYVGRLDASQLADLAKAEGAKAIVDASHPFAEEASKNAMQAAADAGLPYIRYERQASSFSSEKVTFVDSYEEAADLAAEKGGVVMLTTGSKTIDIFAARLIGRPDVKVIARMLPRKDNLDKCERLGFSQEQIVMMQGPFTKELDRALYRHFGVTVVVTKESGKVGFVDEKIAAAEELGIDVIVIRRPRLSYGIVHHDFAGVLDALKQHAPLPTV	not soluble
MSLKQILNHARIVLADRVIDNGALEINDGRIAAIHEHALPDGEDLAGALLLPGLVEIHTDNLEKHLMPRNGVLWPILPAVITHDAQCVAAGITTVLDALAVGDLEGESVRLDTLHSSFDAINQGMREGALRADHFFHLRCELAYPGLLDELEALIAHPAVKLVSVMDHTPGQRQYRDLEQYKKYYGKKKVGWNEDTFLAAVAERKTKQAQYAGRHKQAVVELAQARGIALASHDDTDEAHIEEALRDGVAISEFPTTREAAAAAKRHGLATVMGAPNVVRGGSHSGNVAALELARHDLLDILSSDYVPASLLHGAWLLHAQAGWSLPRAVAAVSLNPAHSVGLADRGDIAVGQRADLVAMIVHGDVPLVRQVWNSGRRVFEGHHHHHH	soluble
MAVYLDFENHIKEIQNEIELALIRGDEDAKEILEKRLDKEVKSIYSNLTDFQKLQLARHPDRPYAMDYIDLILKDKYEVFGDRHYNDDKAIVCFVGKIDNVPVVVIGEEKGRGTKNKLLRNFGMPNPCGYR	not soluble
MSLAELTALYTLTAQMKREGICRLLVLSGEEGWCFDHALKLRDALPGDWLWISPQLDAENHCSPSALQTLLGREFRHAVFDARHGFDAAAFAALSGTLKAGSWLVLLLPVWEEWENQPDADSLRWSDCPDPIATPHFVQHLKRVLTADNDAILWRQNQPFSLAHFTPRTDWHPATGAPQPEQQQLLQQLLTMPPGVAAVTAARGRGKSALAGQLISRIAGSAIVTAPAKAATDVLAQFAGEKFRFIAPDALLASDEQADWLVVDEAAAIPAPLLHQLVSRFPRTLLTTTVQGYEGTGRGFLLKFCARFPHLHRFELQQPIRWAQGCPLEKMVSEALVFNDENFTHTPQGNIVISAFEQTLWRSEPETPLKVYQLLSGAHYRTSPLDLRRMMDAPGQHFLQAAGENEIAGALWLVDEGGLSQELSQAVWAGFRRPRGNLVAQSLAAHGSNPLAATLRGRRVSRIAVHPARQREGTGRQLIAGALQYTHDLDYLSVSFGYTGELWRFWQRCGFVLVRMGNHREASSGCYTAMALLPMSDAGKQLAEREHYRLRRDAQALAQWNGEMLPVDPLNDAILSDDDWLELAGFAFAHRPLLTSLGCLLRLLQTSELALPALRGRLQKNASDAQLCTTLKLSGRKMLLVRQREEAAQALFALNEVRTERLRDRITQWQFFHEGHHHHHH	soluble
MGSDKIHHHHHHMRRADRLFQIVQILRHRRLTTAKQLAERLEVSSRTIYRDIQDLCLSGIPIEGEAGVGYLLRQEVNVPPLMFNEQELEAIQVGMRMVQAQGGHELASAAKQAMIKVEAVLPERLKAYQSLMFAPDFYSEGQLFSFLDLLRRTSREREYILLSYQDGKQSSSERQVRPLALYYWQGVWTLLAWCELRGDFRNFRVDRIVGVLPLGSHFQHTPGQEMPDYIAMMQAQYGEC	not soluble
